Among the data in PMC9483092 are percent decrease of IL4I1 binding to TMPRSS13 with 20 µg S2 per 80 µg IL4I1 values, retold here.

This assay addresses DYK-tagged transmembrane serine protease 13 (TMPRSS13) stably expressed in HEK cells (HEK-T) (human) (UniProt Q9BYE2). The assay can be described thus: co-IP; competition: 20 µg recombinant spike S2 fragment added to HEK-T cells 2 h before IL4I1; read-out IL4I1 co-precipitated with TMPRSS13-DYK.
Chain of UniProt Q9BYE2 (Q9BYE2 other isoform, or with tags, fused parts or gaps): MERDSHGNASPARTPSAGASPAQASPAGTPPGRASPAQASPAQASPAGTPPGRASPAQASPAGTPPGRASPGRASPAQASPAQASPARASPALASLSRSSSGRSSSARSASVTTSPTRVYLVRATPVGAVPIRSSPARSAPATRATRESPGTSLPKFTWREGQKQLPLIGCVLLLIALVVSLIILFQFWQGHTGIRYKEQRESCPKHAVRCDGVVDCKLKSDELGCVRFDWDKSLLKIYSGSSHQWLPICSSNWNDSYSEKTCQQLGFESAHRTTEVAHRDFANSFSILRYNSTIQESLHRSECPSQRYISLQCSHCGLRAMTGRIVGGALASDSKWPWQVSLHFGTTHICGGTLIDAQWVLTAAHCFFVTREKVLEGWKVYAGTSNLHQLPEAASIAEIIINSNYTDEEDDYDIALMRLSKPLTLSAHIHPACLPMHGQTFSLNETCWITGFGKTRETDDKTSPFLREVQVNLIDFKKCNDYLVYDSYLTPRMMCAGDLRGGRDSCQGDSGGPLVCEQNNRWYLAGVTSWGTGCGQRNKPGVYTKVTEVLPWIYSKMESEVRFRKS

In the case of “recombinant S2 fragment of the SARS-CoV-2 spike protein (domain or fragment)”, the percent decrease of IL4I1 binding to TMPRSS13 with 20 µg S2 per 80 µg IL4I1 is 50%.
